Source: PMC9137774, “The ArsH Protein Product of the Paracoccus denitrificans ars Operon Has an Activity of Organoarsenic Reductase and Is Regulated by a Redox-Responsive Repressor” (Antioxidants, 2022)

Experiments:
ArsR1 [1] = molecular target: T1, ArsR1 (Paracoccus denitrificans, UniProt A1B6S3); assay: size-exclusion chromatography: dimer to monomer; also EMSA and fluorescence anisotropy: release from operator DNA; format: binding; conditions: 0.1 mM arsenite, 10 mM MOPS/0.1 M NaCl/15% glycerol pH 7.5
T1 construct: gene Pden_3136

[2] = test system: Cc1cc2nc3c(=O)[nH]c(=O)nc-3n(C[C@H](O)[C@H](O)[C@H](O)COP(=O)(O)O)c2cc1C; assay: purified protein; conditions: NADPH varied 5-150 μM, 0.1 M sodium phosphate pH 7.0, 30 °C, sequential ternary-complex mechanism
[3] = test system: NC(=O)C1=CN([C@@H]2O[C@H](COP(=O)(O)OP(=O)(O)OC[C@H]3O[C@@H](n4cnc5c(N)ncnc54)[C@H](OP(=O)(O)O)[C@@H]3O)[C@@H](O)[C@H]2O)C=CC1; assay: purified protein; conditions: co-substrate FMN (varied), 0.1 M sodium phosphate pH 7.0, 30 °C, sequential ternary-complex mechanism
[4] = molecular target: Paracoccus denitrificans ArsH (Pden_3133 protein), recombinant N-His6-ArsH (Paracoccus denitrificans); assay: crystal structure; X-ray, 2.6 Å; sitting-drop vapor diffusion at 25 °C; molecular replacement with S. flexneri ArsH; four monomers in the asymmetric unit; interfaces analysed with PISA
[5] = molecular target: Paracoccus denitrificans ArsR1 (product of pden_3136), recombinant with N-terminal hexahistidine tag (Paracoccus denitrificans); assay: SEC; Superose 12, 10 mM MOPS/0.1 M NaCl/15% glycerol pH 7.5, 0.5 mL/min; 500 μL of 40 μM ArsR1 loaded, untreated; calibrated with ribonuclease A, chymotrypsinogen A, ovalbumin and albumin
ArsR1 [6] = molecular target: T2, ArsR1 (Paracoccus denitrificans, UniProt A1B6S3 1-119); assay: fluorescence anisotropy; Anisotropy: 10 mM MOPS, 0.1 M NaCl, 15% glycerol, pH 7.5 (Methods; Figure 9 legend says pH 7.0), 30 °C, 25 nM DNA; EMSA: 10 mM Tris-HCl, 50 mM NaCl, 0.5 mM EDTA, pH 8.0, room temperature, 10 µM DNA and 10 µM ArsR; conditions: protein: recombinant; tags: N-terminal His6 (pET100/D-TOPO); chain copies: 2; label: 5'-FAM on strand 1; blunt
T2 sequence: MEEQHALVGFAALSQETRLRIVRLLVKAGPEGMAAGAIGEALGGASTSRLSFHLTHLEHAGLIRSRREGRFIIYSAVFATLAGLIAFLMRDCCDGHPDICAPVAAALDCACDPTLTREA

ArsR2 = molecular target: T3, ArsR2 (Paracoccus denitrificans, UniProt A1B7C2 1-120); assay: as above; conditions: protein: recombinant; tags: N-terminal His6 (pET100/D-TOPO); chain copies: 2; label: 5'-FAM on strand 1; blunt
T3 sequence: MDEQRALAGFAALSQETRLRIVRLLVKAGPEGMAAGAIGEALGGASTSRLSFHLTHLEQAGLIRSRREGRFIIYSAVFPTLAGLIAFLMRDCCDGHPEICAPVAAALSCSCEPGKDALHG

O[As](O)O [sodium arsenite]
size-exclusion chromatography: dimer to monomer; also EMSA and fluorescence anis (ArsR1 [1]): arsenite or diamide-treated ArsR eluted at the monomer size

ArsH (Pden_3133; N-His6-ArsH) (Paracoccus denitrificans PD1222)
Km [2]: 9.3 ± 0.7 µM
kcat [2]: 12.6 ± 0.4 s⁻¹
Km [3]: 12 ± 2 µM
kcat [3]: 12.6 ± 0.4 s⁻¹

Paracoccus denitrificans ArsH (Pden_3133 protein), recombinant N-His6-ArsH (from UniProt A0A9X7N4T4 1-238) (enzyme)
stoichiometry N [4]: 4

Paracoccus denitrificans ArsR1 (product of pden_3136), recombinant with N-terminal hexahistidine tag (natural protein)
stoichiometry N [5]: 2

B1: PDNA2 (dsDNA)
DNA 1: ATCAACATATCTTGAGAGGTTGATTCG
DNA 2: CGAATCAACCTCTCAAGATATGTTGAT
Kd (ArsR1 [6]): 26 ± 4 nM
Kd (ArsR2): 140 ± 10 nM

B2: PDNA1 (dsDNA)
DNA 1: CTCAACATATCTTGAGAGGTTGATTCG
DNA 2: CGAATCAACCTCTCAAGATATGTTGAG
Kd (ArsR1 [6]): 9 ± 1 nM
Kd (ArsR2): 130 ± 20 nM
